This passage reports Kd results from PMC6224492 (2018).

Test [1] concerns the target full-length PPARγ (isoform 2), delipidated, no ligand (human) (UniProt P37231). As to the kind of experiment: FP.
Test [2] has as its target T1, full-length PPARγ with GW1929 (Homo sapiens).
T1 chain: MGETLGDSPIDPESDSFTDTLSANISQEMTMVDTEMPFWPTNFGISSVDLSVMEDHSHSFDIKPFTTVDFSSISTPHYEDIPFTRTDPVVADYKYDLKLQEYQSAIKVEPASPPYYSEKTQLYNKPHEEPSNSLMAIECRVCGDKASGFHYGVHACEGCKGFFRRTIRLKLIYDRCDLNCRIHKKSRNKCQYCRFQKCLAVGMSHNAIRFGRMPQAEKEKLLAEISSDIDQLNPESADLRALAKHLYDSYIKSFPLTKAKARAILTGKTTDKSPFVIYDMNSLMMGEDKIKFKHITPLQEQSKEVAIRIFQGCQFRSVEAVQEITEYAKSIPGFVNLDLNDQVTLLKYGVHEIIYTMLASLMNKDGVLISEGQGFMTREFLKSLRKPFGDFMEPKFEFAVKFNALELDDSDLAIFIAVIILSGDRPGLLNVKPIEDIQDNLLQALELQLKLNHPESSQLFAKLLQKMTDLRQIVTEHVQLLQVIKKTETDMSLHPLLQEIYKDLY
As to the kind of experiment: FP; GW1929.

What is called Kd is a measure of binding affinity in units of concentration.

The star is where a group is joined. FITC = O=C1OC2(c3ccc(O)cc3Oc3cc(O)ccc32)c2ccc(NC(=S)*)cc21; Ahx = NCCCCCC(=O)O

Regarding “FITC-labeled NCoR1 corepressor peptide (residues 2256-2278)”, the Kd in test [1] amounted to 7.4 µM.

In test [2], {FITC-Ahx}-DPASNLGLEDIIRKALMGSFDDK-NH2 [FITC-labeled NCoR1 corepressor peptide (residues 2256-2278)] returned a Kd of 9 µM.
